According to a protein production outcome set (Wang et al. 2014):

test: label from the status in PepcDB records

Protein production, failed:
KGDRLGAVVEWQDNTEALRLKAEADARALEESRVAGENARIRSALDNCTTNVMIADNDRRIIYMNHSVTDMLRGAESDLRKALPNFEVRRLIGSTMDEFHKNPAHQRDLLANLRSTYRAEIQVAGRTFSLVANPVFDADGERLGSVVEWKDRTAEVEIEREVSEIVRAASAGE, KGIKKEIHINDKVIYYTHIEKGSSTVCFMFSGSGYNYDKPLFYYATMLMLEHKIDVVHIHYSYDEQVMNKPMEEVTKIMMDDINPVMKEVLKAEQYNDTIFLGKSLGTIPIANDLMKREEFLQSKMILLTPLLTFDTIFDSILHSNHEGFLVMGDKDHQYNADQVDQLHKTNLQIEVVKNANHSVNVGGYETENSIEAIAKIIGKLKEVVRTN, KIDFISDVSCPWCVIGLRALDQALEALGDEVQAQIHFQPFELNPNMPAEGQDIKEHIAEKYGSTPEQIEAIHETIRERGAELGFTFGKGERRIYNTFDAHRLLHWAEQEGKQPALKQALFVAYFSELKDPSSHQTLADVAQKVGLDRLRAQAILDSDEFASEVREAEQLWTSRGITSVPTMVFNDQYAVSGGQPVEVFVSAIRQMLSES, KLFPRLFGLYRHVADLYQKMKALHPIMNDTLNRQAERWGLGKIYLSEEEFCQSEEKEKIRMLQSDFYDRMWYRLDFRGKLGSAKSFQCYYFFFRHS, KNKKVILFAPTFRGNGHRTAHYPFFKINFARLASYCEEHQATVLFKMHPFVRNKLNIPAIYSKYFLDISNYREVNDVLFITDILISDYSSLIYEFSVFKKPMLFYAFDLEDYIYTRDFYEPYETFVPGKIVKIFDELILALENNDFELEKVKPFLNKNFKYKDGKSSERLVKDLFNKFFQ, KPREEKRTALSKVVIRRLPPGLTKEQLEEQLRPLPAHDYFEFFAADLSLYPHLYSRAYINFRNPDDILLFRDRFDGYIFLDSKGLEYPAVVEFAPFQ, KSVFPFSNVLKQTLLKRATVFLGVPAIYTAMSKAKIPWYFRWFNRIRLFISGGAPLAEQTILDFKAKFPRAKLLEGYGLSEASPVVAVNTPERQKARSVGIPLPGLEAKAVDEELVEVPRGEVGELIVRGGSVMRGYLNMPAATDETIVNGWLKTGDFVTIDEDGFIFIVDRKKDLIISKGQNVYPREIEEEIYKLDAVEAAAVIGVKDRYADEEIVAFVQLKEGMDLGENEIRRHLRTVLANFKIPKQIHFKDGLPRNATGKVLKRVLKEQFDGNK, KVKIPYQKYKLDNGLTVILAPEGSDPLVHVDVTYHVGSAREEIGKSGFAHFFEHMMFQGSENVGDQEHFKIITEAGGTLNGTTNRDRTNYFETVPANQLEKMLWLESDRMGFLLDAVSQRKFEIQRSTVKNERAQRYDNRPYGLIWERMSEALYPEGHPYSWQTIGYVEDLERVDVNDLKAFFLRWYGPNNATITIGGDLDVEQTLAWVNKYFGSIPRGP, LADGDFIDLDWHGPHQPHAPLVIVLHGLTGSSHSPYVKGLQQALQDRGWASVAVNWRGCSGEPNLLPRSYHSGASEDLAEIVSHLRAQRPLAPLYAVGYSLGGNVLLKYLGESGVASQLEAAAAVSVPFRLDHCADRIGQGFSKVYQAHFMREMLAYVQLKQRHFHARGQHEQLATLERLGQLTNLRTFWDFDGKVTAPLNGFRDAHDYYRRSSSHFFLGQNRTPTLIIHSSDDPFVSSHSLPTARELSPQTRFELHDRGGHVGFVDG, LAPGLHFIATPIGAARDITLRALDILRAADVLAAEDTRTLRHLMEIHGIPLGGRPLVAYHDHNGEAARPRLLRALAEGRSVAYASEAGTPLVADPGFQLGRAAIAAGHPVLAAPGPS, LAPTAQKMSKNYGVLASILLSQAAYESNYGSSLLSVKYHNIYSLPARPGQEHIYLKDNVYSKGKWQYQKVDFAVFRDWSSSMSSYLEELRQGRWGESTYKEVAGTTSYKVAAEKLQAAGFNSDPDYTKHLISIIETYNLVKYDR, LDAVVQEKFSGRRWTIPAKVYARPLELFNGLKLSREDFLRELDALGYRREPSVSGPGTVSVAASAVELNTRGFQFYEGAEPAQRVRVRFNGNYVSGLSQANGKELAVARLEPLLIGGLYPAHHEDRILVKLDQVPTYLIDTLVAVEDRDFWNHHGVSLKSVARAVWVNTTAGQLRQGGSTLTQQLVKNFFLSNERSLSRKINEAMMAVLLELHYDKRDILESYLNEVFLGQDGQRAIHGFGLASQYFFSQPLAELKLDQVALLVGMVKGPSYFNPRRYPDRALARRNLVLDVLAEQGVATQQEVDAAKLRPLGVTRQGSMADSSYPAFLDLVKRQLRQDYRDEDLTEEGLRIFTSFDPILQEKAETSVNETLKRLSGRKGVDQVEAAMVVTNPETGEIQALIGSRDPRFAGFNRALDAVRPIGSLIKPAVYLTALERPSKYTLTTWVQDEPFAVKGQDGQVWRPQNYDRRSHGTIFLYQGLANSYNLSTAKLGLDVGVPNVLQTVARLGINRDWPAYPSMLLGAGSLSPMEVATMYQTIASGGFNTPLRGIRSVLTADGQPLKRYPFQVEQRFDSGAVYLVQNAMQRVMREGTGRSVYSQLPSSLTLAGKTGTSNDSRDSWFSGFGGDLQAVVWLGRDDNGKTPLTGATGALQVWASFMRKAHPQSLEMPMPENVVMAWVDAQTGQGSAADCPNAVQMPYIRGSEPAQGPGCGSQNPAGEVMDWV, LEEHEQFNHKIVASAPVGISILRIRDGMIILSNELAHNYFRLLSHSDKQNILSIIAEKSSNIVDVVTNNHNHLQISFVNSRYQNEDVAICVLVDISARVKMERSLQNMATAAEQANQAKSMFLATVSHELRTPLYGIIGNL, LENDRTTFRIRNLDSGEIIWSGMGAVYPVYSPSFDHAADAFAFAFSSPADPPEIHLLRDAETKSSINSHLDGVSPYPAEIVEWKAKDGEDLYGILRLIDPKNPLIVYIHGGPTSFSYASFLDRTSIYLGYGFNVFAPNYRGSVGKGRRYAELNVGDLGGKDFDDVISGIEFLKNTGKIATDR, LENQISFRKALSDSLPNPTYVVNWQGNVISHNSAFEHYFTADYYKNAMLPLENSDSPFKDVFSNAHEVTAETKENRTIYTQVFEIDNGIEKRCINHWHTLCNLPASDNAVYICGWQDITETRDLINALEVEKNKAIKATVAKSQFLATMSHEIRTPISSIMGFL, LEQVQESKAESTAPSSDAVVVSKTNTSSMPVAELRSLIDDLTTQMGTAARELKFELAGRLRDEIAELKKELRGMEEIGLA, LERAKLVSIDRVIDDLSRNIDIEEVSQALAGQVIIDIRHPDAQEDQPLQVPGVEIQTLPFYALNSRFKALDDTRQYLLYCDKGVMSRLHAHHLLSEGHANVRVY, LEYSNIPITDNNKVKLIKSGREKFEDLFEAIRGAKHHIHLEYFNFRNDSIANALFDLLGEKVKEGVKVRAMFDAFGNWSNNKPLKKRHLKAIREKGIEIVKFDPFKFPYINHAAHRDHRKIAVIDGKIGYTGGMNIADYYINGLPKIGTWRDMHIRIEGDAVNILQEIFLDIWNKTTKQNIVGEEYFPNHPERADSCNTVISIVDRTPKRNSRMLSHT, LFYDSEQDKEQSNPYMVLDIDKLFHVRPVTQTDVYRADAKEIPRIFQILYANEGESKKEQEFPVEPVGEKSNYICHKGHEFIPTLYHFPTNCEACMKPLWHMFKPPPALECRRCHIKCHKDHMDKKEEIIAPCKVYYDISTAKNLLLLANSTEEQQKWVSRLV, LKPERVITKNSGASLIDLGDDVALLEFHSPNNSIGFDVVQMINKAVDEVEANYKGLVIGNQGKNFCVGANLMMILMEAQDDNFFEIDMVVRQFQQAMAKIRYSQKPVVSAPFAMTLGGGTEICLPTASIQASLETYMGLVEVGVGVIPGGGGNKELYLRHLERLPEGANIDLQSIANKTFETIAMAKVSTSAHEAMENGFLSERDGVVVNGDHLLYQAKQQVIHLHDAG, LKPLSIIYNGKSGFHASDKEGVYEQIMTLFTRYDFEIQVFELNEKITFDELMEQVLLRHLNLNTSEYKGVIVAAGGDGTLNAVASRLVDTPIPMGILPLGTFNYVARVLNIPLDLLAAAEVIADGTIRSVHVATINDRIYLNNASLG, LMLACMNMARKKTGALIAIQQGIDLTPFAHTGEVFRAEVNARLVENIFFKNSPLHDGAMVIADNSIIAAGCILPVAYNTDLNKDLGLRHRSALGLSQETDAKIIIISEERGRISFAYRGEIHQDITTDELQLLLED

Protein production, not failed:
KGGVWRNTEDEILKAAVMKYGKNQWSRIASLLHRKSAKQCKARWYEWLDPSIKKTEW, KIIGYARVSFNAQKDDLERQIQLIKSYAEENGWDIQILKDIGSGLNEKRKNYKKLLKMVMNRKVEKVIIAYPDRLTRFGFETLKEFFKSYGTEIVIINKKHKTPQEELVEDLITIVSHFAGKLYGMHSHKYKKLTKTVKEIVREEDAKEKE, KLHYKQIVWVKLGNYRWWPAEICNPRSVPLNIQGLKHDLGDFPVFFFGSHDYYWVHQGRVFPYVEGDKSFAEGQTSINKTFKKALEEAAKRFQELKA, KLKKKEYEQELKKLQVELVKLQEWVKHKGLKVVVLFEGRDAAGKGGVIKRITEKLNHRVCRVVALPAPTEKEKTQWYFQRYVAHLPSAGEIVLFDRSWYNRAGVEKVMGFCTPDEYEEFLRSCPEFERMLQRSGIILLKYWFSVSDEEQEKRFLGRINTPIKRWKFSPMDLESRHRWAEYSEAKDKMFAYTDTKNCPWWVVPSDSKQKARLNCISHLLSQIEYKALEYP, KQQKDGSWLMDALIPLNELKYKLGLTTIEGEESEGFQTLNGFLTWWLGRLPHAGELVDYEGWQFEVLNVKHHRIVQVKVSRETESETTTDTNDGDANP, KVKWTHEEDEQLRALVRQFGQQDWKFLASHFPNRTDQQCQYRWLRVL, LAMPPGNSHGLEVGSLAEVKENPPFYGVIRWIGQPPGLNEVLAGLELEDECAGCTDGTFRGTRYFTCALKKALFVKLKSCRPDSRFASLQP, LANRIENVVSQERTRKKFESLVSDSPDGIVHLTTNGTILSVNPSMAGRLGADPDTLVGQQLSAVMDSEAANQRLEAGKSAVENGTATRSEDAVGGRHYHNQYIPVDSHRKSDTFQLVSRDIT, LAYQPGKLLVRGDTPLFKIERLLGIDLDHIEAETLAGLIYETLKRVPEEEEQMEVEGLRIIIKKMKGPKIVLAKVLKLD, LFQIVEQSFGRPLSPYEIETLNQWIDVDHHDLSVIQAALDEALSQNKLSFKYIDRILLNWKKNNVKTVDDSKK, LKMLRDMTGLPHNRKCFDCDQRGPTYVNMTVGSFVCTSCSGSLRGLNPPHRVKSISMTTFTQQEIEFLQKHGNEVCKQIWLGLFDDRSSAIPDFRDPQKVKEFLQEKYEKKRWYVPPEQAK, LLPKYNILTEDQVQKIHENTMKILEEIGIEFEYEPALEVFRREGQKVEGKRVYLTREFVESKLKSAPAEFTLHARNPENNVVIGGDNIVFMPGYGAPFIYELDGSRRKTTLQDYENFAKLAGASKNMHLSGGTMAEPQDIPDGVRHLQMLYSSIKNSDKCFMGSAEGKERAEDSVEIAAILFGGKDVIKEKPVLVSLINSLTPLKYDERMLGALMAYAEAGQAVIIASLVMAGSTGPASLAGTLSLQNAEVLAGISLAQSINPGTPVIYGSTSALSDMRSGSLSIGSPECALFISASAQLARFYGVPSRSGGGLNDSKTVDAQAGYESMMTLMAANLTGVNFVLHTAGILQYFMAMSYEKFIMDDEIAGMLLHYMKGYTFDEDGMAFDVIEKVGPGGHFLTQKHTRKNHKREFYTPTLSDRSAYDTWAKEKLETKQRAHARWQQILANYVPPALDPEIDAKLQAFIAQRGKEVGEE
